In a protein production outcome set (Wang et al. 2014):

Test: label from the status in PepcDB records
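Note: failed if final PepcDB status was selected cloned or expressed and not failed if soluble or beyond.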

Sequence | protein production
MKKAKSRIAILGTGGTIAGFIDSTIATTGYAAGAIDIDVLIKAVPQIRDLADISWEQIANIDSSNMCDEIWLRLAKKIAKLFAEGIDGVVITHGTDTMEETAYFLNLTIKSDKPVVLVGAMRPSTAISADGPKNLYNAVALVVNKEAKNKGVMVAINDKILSARGVVKTHSLNVDAFSSPDFGDLGYIVDGKVFFYNNVIKAHTKNAPFDVSKLTSLPKVDILYSYSNDGSGVAAKALFEHGTKGIVVAGSGAGSIHKNQKDVLKELLKKGLKVVVSSRVVAGCVAVSDSDEKLGFISAEDLNPQKARVLLMLALTKTSDPKKIQEYFLKY | not failed
MKKASFVYSENQLSYQFHSTHPFNHQRLRLTYDLLKSMDALDDSEIVAPRVATEAELRLIHDQAFIDAVKAAGNGTLSDGVALNYGLGTEDTPIFKNMHEAAALLVGGTLTAVDQVMEGHAEHACHLGGGLHHGFRGKASGFCVYNDSSIAIEYMRRKFGARVLYIDTDAHHGDGVQWAFYEEDDVCTLSIHETGRYLFPGTGNFNEKGQGEGYGYSINIPLDAFTEDDSFLFAYEQAVTNVVKFFKPDVILTQNGADAHFHDPLTHLCASMRTFRYIPQLAHALAHEYCEGRWIAVGGGGYDIWRVVPRAWAMIWLEMTDQLQKANGPLPERWLSKWTTYAQHPLPSHWEDENEELPTIPRRDEITEKNKKIVEKALYHIYTELKTQT | failed
MKKATIAATAGIAVTAFAAPTIASASTVVVEAGDTLWGIAQSKGTTVDAIKKANNLTTDKIVPGQKLQVNNEVAAAEKTEKSVSATWLNVRSGAGVDNSIITSIKGGTKVTVETTESNGWHKITYNDGKTGFVNGKYLTDKAVSTPVAPTQEVKKETTTQQAAPAAETKTEVKQTTQATTPAPKVAETKETPVVDQNATTHAVKSGDTIWALSVKYGVSVQDIMSWNNLSSSSIYVGQKLAIKQTANTATPKAEVKTEAPAAEKQAAPVVKENTNTNTATTEKKETATQQQTAPKAPTEAAKPAPAPSTNTNANKTNTNTNTNTNTNNTNTNTPSKNTNTNSNTNTNTNSNTNANQGSSNNNSNSSASAIIAEAQKHLGKAYSWGGNGPTTFDCSGYTKYVFAKAGISLPRTSGAQYASTTRISESQAKPGDLVFFDYGSGISHVGIYVGNGQMINAQDNGVKYDNIHGSGWGKYLVGFGRV | failed
MKKAVVVFSGGQDSTTCLVQALKEFDEVHAITFDYGQRHKLEIEVAQKIAKDLGVKAHKVMDVGLLNELAISSLTRDDIPVSHELQENGLPNSFVPGRNILFLTLAGIYAYQIGADTVITGVCETDFSGYPDCRDDFVKSMNTALVKGMDRALTIKTPLMWLNKAETWALADQYNALQLVRENTLTCYNGIIGDGCGDCPSCDLRKAGLDEYLNNKDAVMKSLVQKQESEGL | failed
MKKDSTIAFTGGRILTMDSEQKYAEAVVIRGDRIAAVGGTYILKSFPDAEIRDLKNRYLLPAFIDSHNHLSSFGCLEHHHHHH | not failed
MKKFQEMCQEEFEKIELMARGGQKIVFDGVHNSYGETVIKLYFQLNDPRSLREIQIERDLNLSMVPKIYETGTIEYEGTETLYIIEQKVKGTELRKVLESGKRFSLEEAVTFLEQGLEFIACIENKGIVHRDIKPENIIRADDGRIFFLDFGIARILGADSLTRTGAMMGPHTPGYAAPEQFNNLKKEIDSRADIFSLGVVTYECITGKNPFREGSINALEVLQKTETITPVQYSIKGDTQSQFMALLGAMMGKYPSRRPRTAKQAIDWLKVAKKTFVYE | failed
MKKFYFLILGIVLCGMVAQAQNSYEGHIGFGQHHVVRKGGELNVEVSLDLGAVKLAAQQMIVLTPVLRSTEGEEQQQLAPVVIAGPRRYRVLKRSLAFGTDNFEMSPMLVEKRKSGTPQTVNLHFGLPYHEWMRRAELILREEVTGCADCPVSQGDHTVITSVFDEQFTPRYELSYVTPPVEPLKQRSETHTAYLNFEVDKYVLLRNYKNNANVLADVDRIVNEIQNDSNLTVTEFRVTGYASPEGNYSRNMKLSENRALAFVGYLQNHGGVDESLLTVDWKGEDWSGLRREVAASSLIDKGAILAVIDGHTDFATRKNRLQALNGGTTYRMLLRDYYPPLRRNEYTISYVARAFNVDEAKQLIKTKPQYLSLNEMFLVANTYPKDSGEFKEVFDIAARIYPDDPVARLNTAALELENGAIDAAIVRLQKSDMPEAWNNLGIAYILKQDYKKGGEYLEKAIDAGIQAAAYNMGQLAAWLKTQE | failed
MKKGIFTALLFTVIVALYSLHLANGKCVYKSNISSLLLENIEALAADEDGSDDGEVVGGKIRCIDVGSLDCPLTHEKVKYIVRGYSL | failed
MKKGSLAIVLGSLLASGAFYTALADGMPAKQQHNNTGESVELHFHYPIKGKQEPKNSHLVVLIEPKIEINKVIPESYQKEFEKSLFLQLSSFLERKGYSVSQFKDASEIPQDIKEKALLVLRMDGNVAILEDIVEESDALSEEKVIDMSSGYLNLNFVEPKSEDIIHSFGIDVSKIKAVIERVELRRTNSGGFVPKTFVHRIKETDHDQAIRKIMNQAYHKVMVHITKELSKKHMEHYEKVSSEMKKRK | failed
MKKGVLIAFEGIDGSGKSSQATLLKDWIELKRDVYLTEWNSSDWIHDIIKEAKKKDLLTPLTFSLIHATDFSDRYERYILPMLKSGFIVISDRYIYTAYARDSVRGVDIDWVKKLYSFAIKPDITFYIRVSPDIALERIKKSKRKIKPQEAGADIFPGLSPEEGFLKYQGLITEVYDKLVKDENFIVIDGTKTPKEIQIQIRKFVGELIDNSF | not failed
MKKIAIFGSAFNPPSLGHKSVIESLSHFDLVLLEPSIAHAWGKNMLDYPIRCKLVDAFIKDMGLSNVQRSDLEQALYQPGQSVTTYALLEKIQEIYPTADITFVIGPDNFFKFAKFYKAEEITERWTVMACPEKVKIRSTDIRNALIEGKDISTYTTPTVSELLLNEGLYRETLSGK | not failed
MKKIGIIGAGGIARAHATALSTIKNAELVGVYDINQQNAESFVKTFGGKSFENVDELIDASEGLIVASPNFCHKEHALQALGKHKHVLCEKPMAISLEEASIMKDTAERLSVRASMGFNYRYLSYVNILKSLIINNELGNILSIKVHFKKNSALRRKKFTWRDDANSKKTSGSLGDLGIHLIDMVWYLFESDFITESVRAKMNTNVKTKEDKQVLVDDYAEIYGQLRNKVFVNIITSKCSVPEDCGFSIEVVGHKKEFKYHTGNPHVYKLIDGLNVVDCPVPQSLLNDPPNEFYGWADSFRSELINWIASTQNDWVEIPSFSDGFRSQEVLEMFFEKDSNSQPLEHHHHHH | not failed
MKKIISLALALALSASAAELKMATTTSTDNTGLLDALKPLYEKESGNTLKWVAVGTGAALKMGEDCNADVLFVHSPKAEKEFMKKGFGVDRTPVMYNDFIIIADKSLASKFKGKNLKESLELIKNEKLTFISRGDKSGTDNKEKSLWKNLGGVPEKQSWYQQSGQGMLASIKIAEEKKGVILTDRGTYIKYEANEKGKPNLVIVNEGDDSLKNFYSVIATNPKHCKNVNYTEASKFIKWVTSDKTLNFIADFKLLNKPLFVIDAKTRKD | failed
MKKILAFLLIAAGSTLFFVFLFIFLSKVFSGEILLSRYIFRIGGFELRWYSTLILMGFLISYFVARKRAKNEGINLEEFDELIFYGVIAGIVGARLYYVLFNLKYYRSLWDALKIWEGGLAIHGAVIGALLTGFLYVRLKKPSFTFLQATDLFTSVLPLGQAIGRWGNFFNYEAFGVPTNLPWKMFVPEPYRPVVYKDYSFFHPTFLYESIWDLLVFFMLSVYFKRYRKRHGEVTCLYFVLYSLGRIVIERLRVDSLMIGNIKAAQLLSAVLILLGFTGFLILRSSQEPKRAF | failed
MKKILASMAVASVAGGTVIGTAQAQTSIAPEDTQSKQASDVVTHENRVTVNVDALRVRTGPSTSNTILGLVSKEQSVPVVDETEDWYKIKYNNTEAYVNKEYATPNHIKVSTTTLRVRTGPSTSNSILGLVGEGEILQVTGEADGWYKIKYNNRDAYVSKDYVSINKSLVKSKKQKVQASRSYTVNVSSLRVRTGPSMSHPVVSVMNKGQVVQVVGEVQDWYRVKLNEGFAYINKDYVSRGTNNTANLPQSIQTESVQQNGTYIVDAAVLRVRTGPANYHPVIGGVLKGQSLQVVDIENGWYKIKYNNRTGYVSGEFVKFLKGSSTQEQTQTKEKLEQAQQPNHEQEKQEVAQQSTREQEKQEVAQQPTREQEKQEVVQQPTREQEKQEPAQNYYVKSSSLNVRSGAGMNYEVIGVVEPNQKIQVVGQQAGWYKINYNGKTGFVGMNYLSKTKVATVEEQPPSEVGTTNENTASGFIKPAAGSYTSGFEKRGGQMHYGLDIAASGTVSVSAAADGVVTRSYYSESYGNVVFISHNMNGQTYTTVYAHLNSRSVSAGQSVKQGQQIGFMGNTGQSEGQHLHFEVHKGEWNAQKSNAVNPKLYIK | failed
MKKILVGIPNYNNAAYIVDTIESVLKQSYSGVDVVVFDNASTDDSVEIIENTFLNNPNVLLKKSASNVGPTMNHNRCLEYAIDNEYDYLKVLSSDDVLLPNIIQEQFELLESEPRGAFATCNMIVTDDKLTKIKDHDFLGSNTDGNAVIKKCASHSANYIGGPSNGLLRVSCIGATRFSPEYKWLSDLKFYCDLLANRPFINTGTNGFFYRRHDNTDSSHVSKIKNLQRKESIRFSGEYGGNFLTKIKIYLRDIKSRLLLEHHHHHH | failed
MKKILVIRNDKIGDFMVCFPAFAMLKQSMPNAEITALVPSYTASLAELCPSIDNVIIDTPNKKDKTEFNRVLQAVKNAQFDAVICFVSDWYNAKLTWKSGIKHRLAPATKVFQFLYNQRLEHHHHHH | failed
MKKKALLPLFLGIMIFLAGCDYSTPEKQDGFFFNTFVQPMKHLLQWLGNDVFHNNFGLAIIVLVLFIRLILLPFMLSNYKNSHMMREKMKVAKPEVDGIQEKVKRARTQEEKMAANQELMEVYKKYDMNPMKSMLGCLPILIQMPIIMGLYFVLKDKLVNGLSEHPHFLWFNLTKPDIWITVIAGVLYFIQAVVSSKTMPQEQRQMGYMMMVISPIMIIWISLQASSALGLYWSVSALFLVIQTHFANIYYSKLAKKEVQPFIEKYEREHNPYSKKKGKNTQVVSKKNKK | failed
MKKKIIIAIVASAITMTHFVGNTYADSKTEVSVTAPYNTNQIAKWLEAHAKPLKTTNPTASLNDLKPLKNMVGSASIVGLGEATHGAHEVFTMKHRIVKYLVSEKGFTNLVLEEGWDRALELDRYVLTGKGNPSQHLTPVFKTKEMLDLLDWIRQYNANPKHKSKVRVIGMDIQSVNENVYNNIIEYIKANNSKLLPRVEEKIKGLIPVTKDMNTFESLTKEEKEKYVLDAKQISALLEENKSYLNGKSKEFAWIKQNARIIEQFTTMLATPPDKPADFYLKHDIAMYENAKWTEEHLGKTIVWGHNGHVSKTNMLSFIYPKVAGQHLAEYYGKRYVSIGTSVYEGQYNVKNSDGEFGPYGTLKSDDPNSYNYIFGQVKKDQFFIDLRKANGVTKTWLNEQHPIFAGITTEGPDIPKTVDISLGKAFDILVQIQKVSPSQVHQLEHHHHHH | not failed
